From patent US12427163B2, “Anti-VTCN1 antibodies and antibody drug conjugates” (Bluefin BioMedicine, Inc., priority 2017, dated 2025)

T1: mouse VTCN1 protein (Mus musculus, UniProt Q7TSP5)
T1 construct: His
T1 sequence (Q7TSP5 25-257): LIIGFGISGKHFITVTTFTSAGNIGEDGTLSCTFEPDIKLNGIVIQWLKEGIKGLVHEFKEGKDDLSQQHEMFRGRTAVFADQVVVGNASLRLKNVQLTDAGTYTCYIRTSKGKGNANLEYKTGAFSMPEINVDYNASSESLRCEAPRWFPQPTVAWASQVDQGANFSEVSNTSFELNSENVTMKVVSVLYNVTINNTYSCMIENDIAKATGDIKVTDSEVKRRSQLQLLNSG

T2: human VTCN1 protein (Homo sapiens, UniProt Q7Z7D3)
T2 construct: His
T2 sequence (Q7Z7D3 25-282): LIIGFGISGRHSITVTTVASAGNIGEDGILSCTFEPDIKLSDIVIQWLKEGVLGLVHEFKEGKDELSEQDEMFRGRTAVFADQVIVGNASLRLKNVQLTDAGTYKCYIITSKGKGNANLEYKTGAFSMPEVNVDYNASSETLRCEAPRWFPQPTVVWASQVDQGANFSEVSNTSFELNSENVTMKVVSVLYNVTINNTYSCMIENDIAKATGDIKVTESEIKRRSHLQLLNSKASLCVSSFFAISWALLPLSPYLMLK

T3: 293 cells expressing recombinant human VTCN1 (Homo sapiens, UniProt Q7Z7D3)
T3 construct: expressed in transfected cells; host or cells: 293 cells
T3 sequence (Q7Z7D3 25-282): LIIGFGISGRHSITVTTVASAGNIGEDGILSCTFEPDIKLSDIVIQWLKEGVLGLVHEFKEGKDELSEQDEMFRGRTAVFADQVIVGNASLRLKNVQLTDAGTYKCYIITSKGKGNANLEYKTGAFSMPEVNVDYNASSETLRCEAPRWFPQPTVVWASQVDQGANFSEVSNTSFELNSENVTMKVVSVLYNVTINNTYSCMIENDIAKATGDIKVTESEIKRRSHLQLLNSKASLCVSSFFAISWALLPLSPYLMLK


How the values were obtained:
mouse VTCN1 protein = target: T1, mouse VTCN1 protein; experiment: Affinity by OCTET, mouse VTCN1; type: binding; conditions: Table 12
Protocol: (§1) The affinity of antibodies to recombinant VTCN1 was determined on an OCTET™ Red (Pall, ForteBio) instrument. After loading reagents into a 96-well plate, the OCTET™ Red with Protein A-conjugated biosensors was programmed as follows: 30 seconds for baseline #1; 45 seconds to immobilize the antibody; 30 seconds for baseline #2; 300 seconds for association of antibody to recombinant VTCN1-his; and 300 seconds for dissociation of recombinant VTCN1-his from the antibody. Table 5 lists the affinity measured for selected antibodies.

human VTCN1 protein = target: T2, human VTCN1 protein; experiment: Affinity to recombinant VTCN1-his by OCTET Red (Protein A biosensors); type: binding; conditions: Table 12
Protocol: as §1

[1] = target: T3, 293 cells expressing recombinant human VTCN1; experiment: Cell-based competition binding FACS assay against 6D9; conditions: 6D9 10 μg/ml, human antibody 1 μg/ml
Protocol: To assess if these human VTCN1 antibodies bind to same or different regions of VTCN1 protein, a cell-based competition binding FACS assay was performed. […] The cells were then resuspend in FACS buffer with DAPI, and analyzed by flow cytometry.

[2] = tested on: cynomolgus monkey VTCN1 protein; experiment: Affinity by OCTET, cynomolgus monkey VTCN1; type: binding; conditions: Table 12
Protocol: as §1, with “antibody.” for “antibody. Table 5 lists the affinity measured for selected antibodies.”

KLN205 tumors = experiment: KLN205 syngeneic mouse lung squamous tumor model in DBA2 mice; type: in vivo
Protocol: For the tumor study. 6-8 week-old female DBA2 mice were implanted subcutaneously in the right flank with 2.5×10^5 mouse lung squamous carcinoma KLN205 cells in 50% matrigel on day 0. Mice were treated with PBS as a vehicle control, a mouse IgG isotype control (10 mg/kg), or anti-VTCN1 6D9 antibody (10 mg/kg) on days 3, 6, 10, 13, 15, 17, 20, and 22 following tumor implantation by intraperitoneal (i.p.) injection. Tumors were measured using an electronic caliper twice a week and tumor volume was calculated using the formula 0.52*length*width*width. Mouse body weight was also measured and recorded.
6-8 week-old female DBA2 mice were implanted subcutaneously in the right flank with 2.5×10^5 mouse lung squamous carcinoma cell KLN205 cells in 50% matrigel on day 0. Tumors were measured on day 7 and mice are randomized to 7 treatment groups. The average size was 50 mm^3. The treatment groups were: PBS vehicle control, mIgG2a isotype control. 6D9, anti-mouse PD1 antibody RMP1-14, 6D9+RMP1-14, anti-mouse CTLA-4 antibody 9D9, and 6D9+9D9. The mice were treated on days 8, 11, 13, 15, 18, 20, 22, and 25. All antibodies were 10 mg/kg by i.p.
To test the activity of the 6D9 and 6D9-mIgG1 antibodies, 6-8 weeks old female DBA2 mice were implanted subcutaneously in the right flank with 0.2 million KLN205 cells in PBS on day 0. Mice were randomized on day 9 into 3 treatment groups, mIgG1 control. 6D9-mIgG1, 6D9-mIgG2a. Mice were treated on days 9, 11, 15, 18, and 22 by i.p. with 200 μg antibodies (10 mg/kg). […] However.

Molecule	mouse k(off) (mouse VTCN1 protein)	mouse k(on) (mouse VTCN1 protein)	Human K(off) (human VTCN1 protein)	Human k(on) (human VTCN1 protein)	competition with 6D9 for binding to VTCN1 [1]	cynomolgus monkey k(off) [2]	cynomolgus monkey k(on) [2]	mouse survival / time to tumor end point 1500 mm^3 (KLN205 tumors; Example 15)	KLN205 primary tumor growth, isotype comparison (KLN205 tumors; Example 15, 200 μg (10 mg/kg) i.p. from day 9)
4C7_63A1: fully human VTCN1 antibody; VH SEQ ID NO: 248, VL SEQ ID NO: 252 (antibody, V domains shown) VH: QVQLQESGPGLVKPSGTLSLTCAVSGGSISSSNWWSWVRQPPGKGLEAIGEIYHSGNTNYNPSLKSRVTISVDKSKNQFSLKLSSVTAADTAIYYCARDGYSSGWYWGYFDYWGQGTLVTVSS VL: EIVMTQSPATLSVSPGERATLSCRASQSVNSNLAWYQQKPGQAPWLLIYGASTRATGIPARFSGSGSGTEFTLTISSLQSEDFAVYYCQQYNHWPYTFGQGTKLEIK	4.01E−03	9.07E+04	5.81E−03	1.19E+05	compete with 6D9	5.80E−03	1.23E+05	–	–
16H12_60B4: fully human VTCN1 antibody; VH SEQ ID NO: 283, VL SEQ ID NO: 286 (antibody, V domains shown) VH: QVQVVQSGAEVKKPGSSVKVSCKASGDTFSNYAISWVRQAPGQGLEWMGGIIPIFGITNYAQKFQGRVTIIADKSTRTAYMELSSLRSEDTAVYYCSRGGPYFDYWGQGILVTVSS VL: EIVMTQSPATLSVSPGERATLSCRASQSVSSNLAWYQQKPGQAPRLLIYGASTRATGIPARFSGSGSGTEFTLTISSLQSEDFAVYYCQQYKKWPFTFGPGTKVDIK	3.76E−03	1.37E+05	1.95E−04	2.62E+05	do not compete with 6D9	2.40E−04	2.45E+05	–	–
14D6_60B5: fully human VTCN1 antibody; VH SEQ ID NO: 278, VL SEQ ID NO: 281 (antibody, V domains shown) VH: QVQLVHSGAEVKRPGSSVKVSCKASGGTFSSYAISWVRQAPGQGLEWMGGIIPIFGIANYAQKFQGRVTIIADKSTRTAYMELSSLRSEDTAVYYCARGGPYFDYWGQGILVTVSS VL: EIVMTQSPATLSVSPGERATLSCRASQSVSSNLAWYQQKPGQAPRLLIYGASTRATGIPARFSGSGSGTEFTLTISSLQSEDFAVYYCQQYNKWPFTFGPGTKVDIK	6.47E−03	1.15E+05	6.29E−04	1.32E+05	do not compete with 6D9	6.91E−04	1.32E+05	–	–
12B5_44B1: fully human VTCN1 antibody; VH SEQ ID NO: 264, VL SEQ ID NO: 268 (antibody, V domains shown) VH: QVQLVQSGAEVKKPGSSMKVSCKASGDTFSSYAISWVRQAPGQGLEWMAGIIPVFGTAHNAQKFQGRVTITADKSTSTAYMELSSLRSEDTAVYYCTRGGPYFDYWGQGTLVTVSS VL: EIVMTQSPATLSVSPGERAALSCRASQSVSSNLAWYQQKPGQAPRLLIYGVSTRATGIPDRFNGSGSGTEFTLTISSLQSEDFGAYYCQQYKKWPFIFGPGTKLEIK	8.11E−03	2.15E+05	3.54E−04	1.61E+05	do not compete with 6D9	3.74E−04	1.80E+05	–	–
6D9-mIgG1: 6D9 antibody converted from a mouse IgG2a to a mouse IgG1 (antibody, V domains shown) VH: QIQLQQSGPGLVQPSQSLSITCTVSGFSLTSYGVQWIRQSPGKGLEWLGVIWSSGSTDYNAAFLSRLSFSKDNSKSQVFFQMNSLQADDSAIYYCARDVTTIVEGFAHWGQGTLVTVSA VL: NIVMTQSPKSMSMSVGERVTLSCKASEKVGTYVSWYQQKPEQSPKLLIYGASNRYTGVPDRFTGSGSATDFTLTISSVQVEDLADYHCGQTYSYPFTFGSGTKLEIK	–	–	–	–	–	–	–	prolonged mouse survival	inhibit primary tumor growth
